{"source": "patent US6150511", "about": "(Fox Chase Cancer Center)", "binders": {"B1": {"name": "tandem lexA operator segment (in pBR711-2) (dsDNA)", "DNA 1": "GGGGTCGACATTACTGTATATATATACAGCATAACTGTATATATATACAGTATAGGATCCGGG", "DNA 2": "CCCGGATCCTATACTGTATATATATACAGTTATGCTGTATATATATACAGTAATGTCGACCCC"}}, "biological_target": "LexA repressor (UniProt P0A7C2 P0A7C2:1-202)", "sequence (P0A7C2 whole entry, one chain of several)": "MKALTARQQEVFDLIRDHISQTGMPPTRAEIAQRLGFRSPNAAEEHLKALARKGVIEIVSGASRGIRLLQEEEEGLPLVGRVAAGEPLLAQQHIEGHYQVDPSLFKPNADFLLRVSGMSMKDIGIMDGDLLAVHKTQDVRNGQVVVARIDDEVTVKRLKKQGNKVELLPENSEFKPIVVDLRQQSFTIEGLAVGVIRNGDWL", "assay": "operator region protected from integration by wild type IN; 5 mM MgCl2, 37 C", "conditions": "chain copies: 2 (stated)", "description": "Assay for integration into pBR322 targets containing lexA operators. Integration of the model viral DNA duplex into a heterologous target was measured using a PCR-based assay similar to that described by Pryciak et al., EMBO J. 11: 291–303 (1992). The target DNAs, pBR322 derivatives, contain the lexA operator region. To measure integration into a specific region, a \"target\" PCR primer was selected, which was ca. 250 bp from the lexA operator region. The \"viral\" primer was identical to the 16nt DNA strand to be joined to the target DNA. The length of the PCR product corresponds to the distance from the target primer site to the integration site. Integration assays contained approximately 0.2 pmoles of PstI linerarized plasmid target DNA, 35 pmoles of IN or IN-lexA fusion protein and 0.1 pmol of viral DNA ends (model substrate). The reaction mixture contained 20 mM Tris-HCl and 5 mM MgCl_2. The viral DNA substrate was a 18 mer/16 mer duplex with a recessed end. This corresponds to a processed viral DNA end, as described previously (Katzman et al., 1989, supra). […] Recovery of target DNA was monitored by agarose gel electrophoresis. […] Products were analyzed on 7% acrylamide-urea sequencing gels. Fragment sizes were determined using a ØX174HaeIII digest and a 10 bp ladder (Bethesda Research Labs)."}
{"binder": "B1", "values": [{"measurement": "binding result", "result": "binds"}]}
